In patent US20240192215A1:

Legend:
Peptide_044 (human) = biological target: T1, Peptide_044 (human); experiment: peptide microarray, secondary antibody only
T1 sequence (peptide): FSATWCGPCKMIKPF

Peptide_051 (human) = biological target: T2, Peptide_051 (human); experiment: peptide microarray, secondary antibody only
T2 sequence (peptide): PCKMIKPFFHSLSEK

Peptide_092 (human) = biological target: T3, Peptide_092 (human); experiment: peptide microarray, secondary antibody only
T3 sequence (peptide): PTFQFFKKGQKVGEF

Peptide_096 (human) = biological target: T4, Peptide_096 (human); experiment: peptide microarray, secondary antibody only
T4 sequence (peptide): FFKKGQKVGEFSGAN

Peptide_097 (human) = biological target: T5, Peptide_097 (human); experiment: peptide microarray, secondary antibody only
T5 sequence (peptide): FKKGQKVGEFSGANK

Full-length mouse IgG [1] = experiment: microarray control spot; secondary antibody only
Human_IgG [2] = experiment: microarray control spot; secondary antibody only
Full-length mouse IgG [3] = experiment: microarray control spot; secondary antibody after B264 1 ug/mL
Human_IgG [4] = experiment: as above
Full-length mouse IgG [5] = experiment: microarray control spot; secondary antibody after B264 5 ug/mL
Human_IgG [6] = experiment: as above
Full-length mouse IgG [7] = experiment: microarray control spot; secondary antibody after B266-1 1 ug/mL
Human_IgG [8] = experiment: as above
Full-length mouse IgG [9] = experiment: microarray control spot; secondary antibody after B266-1 5 ug/mL
Human_IgG [10] = experiment: as above
Full-length mouse IgG [11] = experiment: microarray control spot; secondary antibody after B264 0.2 ug/mL
Human_IgG [12] = experiment: as above
Full-length mouse IgG [13] = experiment: microarray control spot; secondary antibody after B264 0.04 ug/mL
Human_IgG [14] = experiment: as above
Full-length mouse IgG [15] = experiment: microarray control spot; secondary antibody after B266-1 0.2 ug/mL
Human_IgG [16] = experiment: as above
Full-length mouse IgG [17] = experiment: microarray control spot; secondary antibody after B266-1 0.04 ug/mL
Human_IgG [18] = experiment: as above
Full-length mouse IgG [19] = experiment: microarray control spot; secondary antibody after B264 0.0016 ug/mL
Human_IgG [20] = experiment: as above
Full-length mouse IgG [21] = experiment: microarray control spot; secondary antibody after B266-1 0.0016 ug/mL
Human_IgG [22] = experiment: as above
Full-length mouse IgG [23] = experiment: microarray control spot; secondary antibody after B264, head 0.08 ug (text 0.008 ug/mL)
Human_IgG [24] = experiment: as above
Full-length mouse IgG [25] = experiment: microarray control spot; secondary antibody after B266-1, head 0.08 ug (text 0.008 ug/mL)
Human_IgG [26] = experiment: as above

fluorescence-labeled secondary anti-mouse-IgG antibody (anti-mouse IgG(H+L) (Thermo 84545))
signal (blank-control = 1) (Peptide_044 (human)): 1.73
signal (blank-control = 1) (Peptide_051 (human)): 0.47
signal (blank-control = 1) (Peptide_092 (human)): 2.28
signal (blank-control = 1) (Peptide_096 (human)): 1.18
signal (blank-control = 1) (Peptide_097 (human)): 1.34
signal (blank-control = 1) (Full-length mouse IgG [1]): 54.6
signal (blank-control = 1) (Human_IgG [2]): 46.6
signal (blank-control = 1) (Full-length mouse IgG [3]): 24.5
signal (blank-control = 1) (Human_IgG [4]): 20.8
signal (blank-control = 1) (Full-length mouse IgG [5]): 7.16
signal (blank-control = 1) (Human_IgG [6]): 6.7
signal (blank-control = 1) (Full-length mouse IgG [7]): 65.4
signal (blank-control = 1) (Human_IgG [8]): 52.8
signal (blank-control = 1) (Full-length mouse IgG [9]): 47
signal (blank-control = 1) (Human_IgG [10]): 35.8
signal (blank-control = 1) (Full-length mouse IgG [11]): 46
signal (blank-control = 1) (Human_IgG [12]): 36.3
signal (blank-control = 1) (Full-length mouse IgG [13]): 69.5
signal (blank-control = 1) (Human_IgG [14]): 48.1
signal (blank-control = 1) (Full-length mouse IgG [15]): 71.4
signal (blank-control = 1) (Human_IgG [16]): 49.6
signal (blank-control = 1) (Full-length mouse IgG [17]): 79.7
signal (blank-control = 1) (Human_IgG [18]): 49.7
signal (blank-control = 1) (Full-length mouse IgG [19]): 74.5
signal (blank-control = 1) (Human_IgG [20]): 45.7
signal (blank-control = 1) (Full-length mouse IgG [21]): 84.8
signal (blank-control = 1) (Human_IgG [22]): 35.4
signal (blank-control = 1) (Full-length mouse IgG [23]): 76.3
signal (blank-control = 1) (Human_IgG [24]): 52.6
signal (blank-control = 1) (Full-length mouse IgG [25]): 74.6
signal (blank-control = 1) (Human_IgG [26]): 47.9
